These results are taken from doi:10.1101/257543 (bioRxiv, 2018).

What all share (test): ITC
In general terms: Isothermal titration calorimetry measures the heat released or taken up as one component is titrated into another.

The target in assay [1] is T1, SERK3 LRR ectodomain (SERK3^1-220), wild type (A. thaliana, UniProt Q94F62 26-220).
T1 sequence (looked up): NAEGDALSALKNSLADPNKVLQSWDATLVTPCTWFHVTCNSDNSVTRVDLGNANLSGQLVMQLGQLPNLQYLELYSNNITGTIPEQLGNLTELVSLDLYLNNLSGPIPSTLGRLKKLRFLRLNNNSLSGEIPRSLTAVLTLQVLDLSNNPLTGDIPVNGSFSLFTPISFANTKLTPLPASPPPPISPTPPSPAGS

Assay [2] addresses T2, SERK3^D122N LRR ectodomain (elg) (A. thaliana, UniProt Q94F62 26-220, D122N).
T2 sequence (looked up): T1 sequence (looked up) with D97N

Assay [3] concerns the target different SERK ectodomains.
Assay [4] has as its target T3, SERK3^F60A LRR ectodomain (A. thaliana, UniProt Q94F62 26-220, F60A).
T3 sequence (looked up): T1 sequence (looked up) with F35A

Residue numbers refer to the chain shown, from its start. Names may count otherwise.

B1: BIR3 LRR ectodomain (BIR3^1-213) (domain or fragment, A. thaliana, UniProt O04567 25-213, looked up)
chain: EDDVLCLQGLKNSLIDPSSRLSSWSFPNSSASSICKLTGVSCWNEKENRIISLQLQSMQLAGEIPESLKLCRSLQSLDLSGNDLSGSIPSQICSWLPYLVTLDLSGNKLGGSIPTQIVECKFLNALILSDNKLSGSIPSQLSRLDRLRRLSLAGNDLSGTIPSELARFGGDDFSGNNGLCGKPLSRCGA
modifications: N-glycosylated (fully glycosylated in the crystal; sites not given)
In the case of B1, in assay [1], the Kd (commonly the free concentration of one partner at which half of the binding sites on the other are occupied at equilibrium, for simple one-to-one binding) is approximately 1 µM and the stoichiometry N (as a rule, a count of units in the complex or per binding partner) was 1. For the same molecule, the “fold reduction of binding against wild-type SERK3” value in assay [2] is approximately 4 fold. In assay [3], this molecule registered a dissociation constant Kd of 1 to 3 µM.

B2: BIR2 LRR ectodomain (BIR2^1-222), wild type (domain or fragment, A. thaliana, UniProt Q9LSI9 29-222, looked up)
chain: ADEDDIRCLRGLKASLTDPQNALKSWNFDNTTLGFLCNFVGVSCWNNQENRVINLELRDMGLSGKIPDSLQYCASLQKLDLSSNRLSGNIPTELCNWLPFLVSLDLSNNELNGEIPPDLAKCSFVNSLVLSDNRLSGQIPVQFSALGRLGRFSVANNDLSGRIPVFFSSPSYSSDDFSGNKGLCGRPLSSSCGG
modifications: N-glycan at Asn58 (in the crystal structure)
For the molecule B2, the binding result in assay [1] and in assay [4] was “binds” throughout. For the same molecule, in assay [2], the “fold reduction of binding against wild-type SERK3” value was approximately 8 fold. Besides, the Kd in assay [3] lay within 1 to 3 µM.

B3: BIR2^E84R LRR ectodomain (domain or fragment, A. thaliana, UniProt Q9LSI9 29-222, looked up)
chain: B2 chain with E56R
Consider B3, for which, in assay [1], the binding result is recorded as “binds”.

B4: BIR2^V157D LRR ectodomain (domain or fragment, A. thaliana, UniProt Q9LSI9 29-222, looked up)
chain: B2 chain with V129D
B4: the binding result in assay [1] is given as “binds”.

B5: BIR2^W73A LRR ectodomain (domain or fragment, A. thaliana, UniProt Q9LSI9 29-222, looked up)
chain: B2 chain with W45A
As to B5, in assay [1], the binding result is given as “binds”.
